This is an account of results in patent US20250288675A1 (published 2025).

In assay [1] the target is T1, MAGE-A1 peptide on HLA-A*02:01 (human).
T1 peptide: KVLEYVIKV
The assay is described as follows: activation reporter or marker. An excerpt:
(§1) Reporter HEK293T cells expressing exclusively HLA-A*02:01 and expressing a granzyme B-activated infrared fluorescent protein (IFP) were further engineered to express either MAGE-A1 or PRAME. The MAGE-A1 expressing cells were GFP-labeled, and the PRAME-positive cells were labeled with both GFP and CellTrace™ Violet to enable tracking in downstream flow cytometry readouts. When a TCR-T cell recognizes a target cell, it secretes cytotoxic granules into the target cell, triggering the target cell to become fluorescent (IFP-positive). The two target cells (i.e., PRAME- or MAGE-A1 positive) were mixed at a balanced ratio and co-cultured with MAGE-A1 TCR-T cells, PRAME TCR-T cells, or a multiplex product combining the two TCR-T cells. PRAME TCR-T cells and MAGE-A1 TCR-T cells were engineered from T cells from the same donor. The TCR-T cells corresponded to pan T cells engineered by lentivirus transduction using a delivery vector employing MGTM modification and co-delivering CD8α and CD8β co-receptor as described above (such as a Table 1). Donor-matched non-engineered T cells (NTC) were also included as a control. The experiment then measured the proportion of each subset of target (GFP-positive, MAGE-A1 target; GFP/CTV-positive, PRAME target) getting recognized and targeted by TCR-T cells as measured by the proportion of GFP or GFP/CTV becoming IFP-positive. […]

Assay [2] deals with T2, PRAME peptide on HLA-A*02:01 (human).
T2 peptide: SLLQHLIGL
The experiment in a line: killing.

For assay [3], the target named is T3, HPV16 E7 peptide on HLA-A*02:01 (human).
T3 peptide: YMLDLQPET
The assay is described as follows: killing.

The target of assay [4] is T4, MAGE-C2 peptide on HLA-B*07:02 (human).
T4 peptide: RAREFMELL
The experiment in a line: killing.

Assay [5] addresses T5, MAGE-A1 peptide on HLA-C*07:02 (human).
T5 peptide: VRFFFPSL
The experiment in a line: killing.

Assay [6] has as its target T1, MAGE-A1 peptide on HLA-A*02:01. The assay is described as follows: killing.
The target in assay [7] is T2, PRAME peptide on HLA-A*02:01. The assay is described as follows: activation reporter or marker.
Excerpt: as §1

B1: PRAME-425-366 (TCR, V domains shown)
Valpha: AQTVTQSQPEMSVQEAETVTLSCTYDTSESDYYLFWYKQPPSRQMILVIRQEAYKQQNATENRFSVNFQKAAKSFSLKISDSQLGDAAMYFCAYRKTSYDKVIFGPGTSLSVIP
Vbeta: AAGVIQSPRHLIKEKRETATLKCYPIPRHDTVYWYQQGPGQDPQFLISFYEKMQSDKGSIPDRFSAQQFSDYHSELNMSSLELGDSALYFCASSFARLEGRDNEQFFGPGTRLTVL
Consider B1, for which the binding result in assay [1] is given as “no recognition”; in assay [2] it was “recognises”.

B2: E7-11-28 (TCR, V domains shown)
Valpha: GQQVMQIPQYQHVQEGEDFTTYCNSSTTLSNIQWYKQRPGGHPVFLIQLVKSGEVKKQKRLTFQFGEAKKNSSLHITATQTTDVGTYFCAGIGSSNTGKLIFGQGTTLQVKP
Vbeta: EPEVTQTPSHQVTQMGQEVILRCVPISNHLYFYWYRQILGQKVEFLVSFYNNEISEKSEIFDDQFSVERPDGSNFTLKIRSTKLEDSAMYFCAITGRVSYEQYFGPGTRLTVT
As for B2, the binding result in assay [3] is reported as “recognises”.

B3: MAGEC2 TCR 8-3 (TCR, V domains shown)
Valpha: ILNVEQSPQSLHVQEGDSTNFTCSFPSSNFYALHWYRWETAKSPEALFVMTLNGDEKKKGRISATLNTKEGYSYLYIKGSQPEDSATYLCASGSGGATNKLIFGTGTLLAVQP
Vbeta: GEEVAQTPKHLVRGEGQKAKLYCAPIKGHSYVFWYQQVLKNEFKFLISFQNENVFDETGMPKERFSAKCLPNSPCSLEIQATKLEDSAVYFCASSQSRSLRGTEAFFGQGTRLTVV
As for B3, the binding result in assay [4] is on record as “recognises”.

B4: MAGEA1 TCR 32-41 (TCR, V domains shown)
Valpha: TQLLEQSPQFLSIQEGENLTVYCNSSSVFSSLQWYRQEPGEGPVLLVTVVTGGEVKKLKRLTFQFGDARKDSSLHITAAQPGDTGLYLCAGDESISYGKLTFGQGTILTVHP
Vbeta: DAGVIQSPRHEVTEMGQEVTLRCKPISGHDYLFWYRQTMMRGLELLIYFNNNVPIDDSGMPEDRFSAKMPNASFSTLKIQPSEPRDSAVYFCASSFLGWNEKLFFGSGTQLSVL
In the case of B4, the binding result in assay [5] is “recognises”; in assay [6], “no recognition”.

B5: MAGEA1-278-1479 (TCR, V domains shown)
Valpha: EDQVTQSPEALRLQEGESSSLNCSYTVSGLRGLFWYRQDPGKGPEFLFTLYSAGEEKEKERLKATLTKKESFLHITAPKPEDSATYLCAVSYGQNFVFGPGTRLSVLP
Vbeta: EAGVTQSPTHLIKTRGQQATLRCSPISGHTSVYWYQQALGLGLQFLLWYDEGEERNRGNFPPRFSGRQFPNYSSELNVNALELEDSALYLCASSLGQLNTEAFFGQGTRLTVV
For B5, the binding result is listed as “no recognition” in assay [7], “no recognition” in assay [5] and “recognises” in assay [6].
